{"source": "patent US20150344863", "proteins": {"B1": {"name": "desialylated wild-type Factor VII (dWT VIIa) (protein)", "chain 1": "ANAFLEELRPGSLERECKEEQCSFEEAREIFKDAERTKLFWISYSDGDQCASSPCQNGGSCKDQLQSYICFCLPAFEGRNCETHKDDQLICVNENGGCEQYCSDHTGTKRSCRCHEGYSLLADGVSCTPTVEYPCGKIPILEKRNASKPQGR", "chain 2": "IVGGKVCPKGECPWQVLLLVNGAQLCGGTLINTIWVVSAAHCFDKIKNWRNLIAVLGEHDLSEHDGDEQSRRVAQVIIPSTYVPGTTNHDIALLRLHQPVVLTDHVVPLCLPERTFSERTLAFVRFSLVSGWGQLLDRGATALELMVLNVPRLMTQDCLQQSRKVGDSPNITEYMFCAGYSDGSKDSCKGDSGGPHATHYRGTWYLTGIVSWGQGCATVGHFGVYTRVSQYIEWLQKLMRSEPRPGVLLRAPFP"}}, "target": "Factor X, P00742", "sequence (P00742 whole entry, looked up)": "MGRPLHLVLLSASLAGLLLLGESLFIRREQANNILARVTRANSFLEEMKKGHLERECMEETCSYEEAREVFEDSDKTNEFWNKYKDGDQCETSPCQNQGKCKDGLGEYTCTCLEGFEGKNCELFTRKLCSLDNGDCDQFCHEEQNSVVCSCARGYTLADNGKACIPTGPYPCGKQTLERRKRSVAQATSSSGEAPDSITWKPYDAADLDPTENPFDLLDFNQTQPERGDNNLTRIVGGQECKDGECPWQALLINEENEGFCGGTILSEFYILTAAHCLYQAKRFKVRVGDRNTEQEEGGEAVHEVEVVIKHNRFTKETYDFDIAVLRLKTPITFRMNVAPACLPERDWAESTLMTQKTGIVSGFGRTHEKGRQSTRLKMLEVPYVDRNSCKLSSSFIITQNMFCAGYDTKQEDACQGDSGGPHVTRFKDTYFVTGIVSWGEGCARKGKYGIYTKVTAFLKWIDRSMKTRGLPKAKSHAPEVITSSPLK", "data": [{"protein": "B1", "values": [{"measurement": "Michaelis Menten kinetics of Factor X activation, Factor X titrated in the presence of sTF-Factor VII complexes (0.5 nM Factor VII, 125 nM sTF)", "value": "dWT VIIa (dF7) can activate Factor X more effectively (approximately 2-fold) than wild-type Factor VII (F7)"}]}]}
